Reference: patent US7064106B2, “Gene and use thereof” (Takeda Chemical Industries, Ltd., priority 1999, dated 2006)
Where no end group is shown, it is not given here.

Experiments:
[1] = biological target: T1, binding of IRAP-His to GST-MD364N (UniProt P97629+Q9Y613); assay: Binding inhibition test / screening of compounds that inhibit the binding of IRAP to human MD36
T1 construct: to construct plasmid pET21-IRAP (1–109); made in house; host or cells: E. coli (BL21 for GST-MD36N4)
T1 sequence (Q9Y613 951-1164): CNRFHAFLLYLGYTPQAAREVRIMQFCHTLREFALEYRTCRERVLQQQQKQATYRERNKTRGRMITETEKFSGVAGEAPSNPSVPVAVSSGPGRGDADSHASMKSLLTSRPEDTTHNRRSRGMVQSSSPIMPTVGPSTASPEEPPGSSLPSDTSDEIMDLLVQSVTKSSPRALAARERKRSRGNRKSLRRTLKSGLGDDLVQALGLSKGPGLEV
T1 sequence (P97629 1-109): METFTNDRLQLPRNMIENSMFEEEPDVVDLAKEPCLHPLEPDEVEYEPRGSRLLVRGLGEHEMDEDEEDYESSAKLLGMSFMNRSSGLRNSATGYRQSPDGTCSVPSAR
Source text: The C terminal part (partial peptide encoded by the partial base sequence of 2995–3674 from the 5′ end in SEQ ID NO:2) of SEQ ID NO:1 (full-length cDNA of MD36) was used as human MD36. This DNA fragment was inserted into pGEX expression vector (Amersham Pharmacia) to construct expression plasmid pGEX-MD36N4 capable of expressing the human MD36 partial protein in the form fused to GST (glutathione S-transferase) protein (GST-MD36N4 protein) under control of tac promoter. However, the protease recognition site in these junctions was removed by applying PCR. Using pGEX-MD36N4, E. coli BL21 was transformed and the transformants were cultured in LB medium in a conventional manner while inducing expression by IPTG. After culture, the cells collected were disrupted by sonication followed by centrifugation of the cell homogenate. As a result, most of the GST-MD36N4 protein were present in the insoluble fraction. […]
Protein-protein binding test was carried out by the procedure shown below. […] After the wells were again rinsed 3 times with TBS-T, the IRAP-His protein remained in the wells was quantitatively assayed using anti-Penta-His antibody (Qiagen, Inc.). […] IRAP-His (1.0 μg/ml) or anti-Penta-His antibody (diluted to 2000 fold) and both were added to the GST-MD364N-coated or uncoated wells, and after washing with TBS-T, the amount of His-Tag remained in the wells was quantified. […]

profilin II = biological target: T2, profilin II (Homo sapiens, UniProt P35080); assay: Yeast two-hybrid HIS3 growth test, MD36 and profilin family; format: cell-based; details: S. cerevisiae Y190; 40 mM 3-amino-1,2,4-triazole
T2 construct: expressed in transfected cells; host or cells: Saccharomyces cerevisiae Y190
T2 sequence (P35080 1-140 isoform P35080-2): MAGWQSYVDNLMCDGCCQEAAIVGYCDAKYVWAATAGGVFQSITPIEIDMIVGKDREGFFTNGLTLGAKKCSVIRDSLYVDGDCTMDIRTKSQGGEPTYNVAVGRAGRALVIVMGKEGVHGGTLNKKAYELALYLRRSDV
Source text: (§1) The protein-protein interaction between MD36 and the profilin family was detected by the yeast two-hybrid system. Based on pGBT9 (CLONTECH), expression plasmids were constructed to express the coding regions of profiling I (Evangelista et al., Science, 276, 118–122, 1997; Imamura et al., EMBO J., 16, 2745–2755, 1997; Tanaka, Biochem. Biophys. Res. Commun., 267, 479–481, 2000), profilin II (Schluter et al., Biohim. Biophys. Acta, 1359, 97–109, 1997), and profiling IIL in the form fused to yeast GAL4-DNA-binding domain protein under control of yeast ADH1 promoter. These plasmids were named pG-PFNI, pG-PFNII and pG-PFNIII, respectively (yeast selection marker was TRP1). On the other hand, expression plasmids that express the full-length sequence (SEQ ID NO:1) of MD36, which is IRAP-BP protein, or the coding region from this N-terminus to the sequence (SEQ ID NO:33) including the proline-rich domain in the form fused to yeast […] activated domain protein under control of yeast ADH1 promoter was constructed based on pACT2 (CLONTECH), and named pACT-MD36 and pACT-MD36NT, respectively (yeast selection marker was LEU2). pG-PFNI, pG-PFNII, pG-PFNIII or, pGBT9 for control was co-transfected to yeast Saccharomyces cerevisiae Y190 together with pACT-MD36 or pACT-MD36NT, and yeast strains bearing plasmids from the two were selected on SD medium free of tryptophan and leucine. S. cerevisiae Y190 is originally a histidine auxotrophic strain but when the introduced proteins on the plasmids show the interactions, reporter gene HIS3 is expressed and the strain becomes capable of growing on a histidine-free plate. The yeast strain acquired was spread on tryptophan, leucine and histidine-free SD medium supplemented with 40 mM 3-amino-1,2,4-triazole.

profilin I = assay: as above; format: cell-based; details: S. cerevisiae Y190; 40 mM 3-amino-1,2,4-triazole
Source text: as §1

profilin IIL = biological target: T3, profilin IIL (Homo sapiens, UniProt P35080); assay: as above; format: cell-based; details: S. cerevisiae Y190; 40 mM 3-amino-1,2,4-triazole
T3 construct: expressed in transfected cells; host or cells: Saccharomyces cerevisiae Y190
T3 sequence (P35080 1-140): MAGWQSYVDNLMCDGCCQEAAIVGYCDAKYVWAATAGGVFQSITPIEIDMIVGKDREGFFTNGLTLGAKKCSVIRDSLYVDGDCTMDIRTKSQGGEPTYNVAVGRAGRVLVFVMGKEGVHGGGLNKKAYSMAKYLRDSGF
Method: Using as a template human skeletal muscle-derived cDNA and as an enzyme Pfu polymerase (STRATAGENE), the reaction was carried out at 95° C. for 30 seconds, at 65° C. for 45 seconds and at 72° C. for 60 seconds, for 35 cycles. As a result of PCR, the DNA fragment of 745 bp was found, in addition to the DNA fragment of 423 bp or profilin II, and named profilin IIL. The base sequence for cDNA of profilin IIL is shown by SEQ ID NO:29, and the amino acid sequence of profilin II is shown by SEQ ID NO:28.
The protein-protein interaction between MD36 and the profilin family was detected by the yeast two-hybrid system. Based on pGBT9 (CLONTECH), expression plasmids were constructed to express the coding regions of profiling I (Evangelista et al., Science, 276, 118–122, 1997; Imamura et al., EMBO J., 16, 2745–2755, 1997; Tanaka, Biochem. Biophys. Res. Commun., 267, 479–481, 2000), profilin II (Schluter et al., Biohim. Biophys. Acta, 1359, 97–109, 1997), and profiling IIL in the form fused to yeast GAL4-DNA-binding domain protein under control of yeast ADH1 promoter. These plasmids were named pG-PFNI, pG-PFNII and pG-PFNIII, respectively (yeast selection marker was TRP1). […]

How did the “binding inhibition (reduced amount of His-Tag remained on the plate)” value ([1]; library compound in DMSO, final concentration 1 μM) turn out when `O=C(O)c1cc(O)c2c(c1)[C@@H]([C@H]1c3cc(C(=O)O)cc(O)c3C(=O)c3c(OC4OC(CO)C(O)C(O)C4O)cccc31)c1cccc(OC3OC(CO)C(O)C(O)C3O)c1C2=O` (some centres unmarked) [Compound 1] was run?
The value was “exhibited binding inhibition”.

Which “inhibition of the binding of IRAP-His to GST-MD364N” value ([1]; biotinylated IRAP (55–82) peptide added, several amounts (μg/well)) does the source give for “IRAP (55–82): chemically synthesized biotinylated peptide, amino acids 55–82 from the N terminus of SEQ ID NO:11 (IRAP) (VRGLGEHEMDEDEEDYESSAKLLGMSFM; also: biotinylated; listed as Homo sapiens) [reference compound]” here?
Its value is “inhibited”.

B1: MD36NT: MD36 from the N terminus to the sequence including the proline-rich domain (SEQ ID NO:33) (protein, listed as Homo sapiens)
chain: MAGGEDRGDGEPVSVVTVRVQYLEDTDPFACANFPEPRRAPTCSLDGALPLGAQIPAVHRLLGAPLKLEDCALQVSPSGYYLDTELSLEEQREMLEGFYEEISKGRKPTLILRTQLSVRVNAILEKLYSSSGPELRRSLFSLKQIFQEDKDLVPEFVHSEGLSCLIRVGAAADHNYQSYILRALGQLMLFVDGMLGVVAHSDTIQWLYTLCASLSRLVVKTALKLLLVFVEYSENNAPLFIRAVNSVASTTGAPPWANLVSILEEKNGADPELLVYTVTLINKTLAALPDQDSFYDVTDALEQQGMEALVQRHLGTAGTDVDLRTQLVLYENALKLEDGDIEEAPGAGGRRERRKPSSEEGKRSRRSLEGGGCPARAPEPGPTGPASPVGPTSSTGPALLTGPASSPVGPPSGLQASVNLFPTISVAPSADTSSERSIYKLHQTASVWAPESPPVPQSPPGQARLEARFLENVAAAETEKQVALAQGRAETLAGAMPNEAGGHPDARQLWDSPETAPAARTPQSPAPCVLLRAQRSLAPEPKEPLIPASPKAEPIWELPTRAPRLSIGDLDFSDLGEDEDQDMLNVESVEAGKDIPAPSPPLPLLSGVPPPPPLPPPPPIKGPFPPPPPLPLAAPLPHSVPDSSALPTKRKTVKLFWRELKLAGGH
B1 was tested. Which “growth of yeast on tryptophan, leucine and histidine-free SD medium” value (shortened to “growth … leucine and histidine-free SD medium”) (profilin II) did it give?
The value was “did not grow”.

What about the “growth … leucine and histidine-free SD medium” value (profilin I) of the same molecule?
The value was “did not grow”.

And the “growth … leucine and histidine-free SD medium” value (profilin IIL)?
Its value is “Growth of the yeast was noted”.
